The values that follow come from paper PMC9078203.

Assay [1] has as its target DIP-α K81Q (D. melanogaster) (UniProt Q9W4R3). In words: AUC.
In assay [2] the target is DIP-α (D. melanogaster) (UniProt Q9W4R3). Kind of assay: SPR. In general terms: Surface plasmon resonance follows binding to a sensor surface in real time, without labels.
For assay [3] the target is unchanged. In words: SPR. This is another data set of the same source.
Assay [4] addresses DIP-α G74A (D. melanogaster) (UniProt Q9W4R3). Kind of assay: SPR.
Assay [5] has the same target. In words: AUC.
In assay [6] the target is DIP-α K81Q G74S (D. melanogaster) (UniProt Q9W4R3). In words: AUC.
For assay [7] the target is unchanged. Kind of assay: SPR.
Another assay deals with DIP-γ (D. melanogaster). In words: SPR.
In assay [8] the target is DIP-α K81Q (D. melanogaster) (UniProt Q9W4R3). Kind of assay: SPR.
In a further assay the target is DIP-β (D. melanogaster). In words: SPR.

Read-outs that look alike come from different tables or passages of the source.

For the substance “DIP-α K81Q (from UniProt Q9W4R3 1-554) (natural protein)”, in assay [1], the Kd stood at 19.6 µM and the stoichiometry N amounted to 2.
Regarding “Dpr10 Q138D (from UniProt Q9VT83 1-408) (natural protein)”, the Kd with DIP-α (D. melanogaster) [2] is 27.8 µM; with DIP-α (D. melanogaster) [3] it was 27.6 µM.
In the case of “Dpr10 V144K (from UniProt Q9VT83 1-408) (natural protein)”, the Kd with DIP-α (D. melanogaster) [3] is 11.3 µM.
As for “Dpr10 Q142M (from UniProt Q9VT83 1-408) (natural protein)”, the Kd with DIP-α (D. melanogaster) [3] is 0.19 µM; in assay [4], 0.1 µM.
As for “Dpr10 V144K Q142E G99D (from UniProt Q9VT83 1-408) (natural protein)”, the Kd with DIP-α (D. melanogaster) [3] came to 50 µM.
In the case of “DIP-α G74A (from UniProt Q9W4R3 1-554) (natural protein)”, in assay [5], the Kd worked out at 50 µM and the stoichiometry N amounted to 2.
As for “DIP-α K81Q G74S (from UniProt Q9W4R3 1-554) (natural protein)”, in assay [6], the Kd is 46 µM and the stoichiometry N is 2.
Take “Dpr10 (from UniProt Q9VT83 1-408) (natural protein)”: the dissociation constant Kd is 68 µM in assay [7]; more than 1000 µM with DIP-γ (D. melanogaster); 31.8 µM in [8]; 33 µM with DIP-β (D. melanogaster); 0.9 µM in assay [4].

For orientation: Kd means a measure of binding affinity in units of concentration. Read a high Kd as weaker binding. The stoichiometry N is a count of units in the complex or per binding partner.
